The text below walks through data of US20240392020A1 (JIANGSU HENGRUI PHARMACEUTICALS, published 2024).

T1: B7H3 on the recombinant cell line CT26-B7H3 (UniProt Q5ZPR3 29-534, limits assumed)
T1 construct: whole, on cells
T1 sequence (looked up): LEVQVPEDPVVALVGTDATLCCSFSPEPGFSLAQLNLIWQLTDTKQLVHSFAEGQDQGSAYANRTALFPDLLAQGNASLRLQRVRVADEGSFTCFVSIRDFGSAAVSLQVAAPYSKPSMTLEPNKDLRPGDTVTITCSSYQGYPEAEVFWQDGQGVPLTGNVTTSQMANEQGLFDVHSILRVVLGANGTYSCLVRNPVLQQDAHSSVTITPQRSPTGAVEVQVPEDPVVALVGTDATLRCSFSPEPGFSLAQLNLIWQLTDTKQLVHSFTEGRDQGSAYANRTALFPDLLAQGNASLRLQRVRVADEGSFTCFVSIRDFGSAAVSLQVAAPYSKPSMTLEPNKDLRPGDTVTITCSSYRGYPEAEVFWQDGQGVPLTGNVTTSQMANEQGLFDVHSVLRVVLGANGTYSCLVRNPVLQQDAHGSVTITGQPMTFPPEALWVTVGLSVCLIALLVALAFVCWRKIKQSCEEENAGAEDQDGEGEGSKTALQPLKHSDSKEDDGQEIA

B1: R7 (antibody)
heavy: not shown
light: DIQMTQSPSSLSASVGDRVTITCLASEGISSYLAWYQQKPGKAPKLLIYGANSLQTGVPSRFSGSGSATDYTLTISSLQPEDFATYYCQQSYKFPNTFGQGTKVEVKSGAPRFLTRPKAFVVSVGKDATLSCQIVGNPTPQVSWEKDQQPVAAGARFRLAQDGDLYRLTILDLALGDSGQYVCRARNAIGEAFACVGLQVDAEA
B2: R9 (antibody)
heavy: not shown
light: B1 light with R116C, C195A
B3: R11 (antibody)
heavy: not shown
light: B1 light with A110C, C132S, C183S, C195A
B4: R8 (antibody)
heavy: not shown
light: B1 light with A110C, C195A
B5: R12 (antibody)
heavy: not shown
light: B1 light with R116C, C132S, C183S, C195A
B6: H5 (antibody)
heavy: not shown
light: DIQMTQSPSSVSASVGDRVTITCRASQDIANYLSWYQQKPGKSPKLLIYGTSNLEVGVPSRFSGSRSGTDFTLTISSLQPEDFATYYCLQDKEFPRTFGGGTKVEIKSGAPRFLTRPKAFVVSVGKDATLSCQIVGNPTPQVSWEKDQQPVAAGARFRLAQDGDLYRLTILDLALGDSGQYVCRARNAIGEAFACVGLQVDAEA
B7: H9 (antibody)
heavy: not shown
light: B6 light with A110C, C132S, C183S, C195A
B8: H8 (antibody)
heavy: not shown
light: B6 light with C132S, C183S
B9: H7 (antibody)
heavy: not shown
light: B6 light with R116C, C195A
B10: H10 (antibody)
heavy: not shown
light: B6 light with R116C, C132S, C183S, C195A
B11: H6 (antibody)
heavy: not shown
light: B6 light with A110C, C195A
B12: H11 (antibody)
heavy: not shown
light: DIQMTQSPSSVSASVGDRVTITCRASQDIANYLSWYQQKPGKSPKLLIYGTSNLEVGVPSRFSGSRSGTDFTLTISSLQPEDFATYYCLQDKEFPRTFGGGTKVEIKQGSPPEFLRFPRPVRVVSGAEAELKCVVLGEPPPVVVWEKGGQQLAASERLSFPADGAEHGLLLTAALPTDAGCYVCRARNAAGEAYAAAAVTVLEPP
B13: H12 (antibody)
heavy: not shown
light: B12 light with C181V, G191C
B14: H14 (antibody)
heavy: not shown
light: B12 light with C133S, C184S
B15: H13 (antibody)
heavy: not shown
light: B12 light with C181V, A193C
B16: H15 (antibody)
heavy: not shown
light: B12 light with C133S, C181V, C184S, A193C
B17: F24 (antibody)
heavy: not shown
light: DTVVTQEPSFSVSPGGTVTLTCGLSSGSVSTSHYPSWYQQTPGQAPRMLIYNTNTRSSGVPDRFSGSILGNKAALTITGAQADDESDYYCAIHVDRDIWVFGGGTKLTVLDQPQFSGAPRFKTRPKAFVVSVGKDATLSSQIVGNPTPQVSWEKDQQPVAAGARFRLAQDGDLYRLKILDLALGDSGQYVSRARNAIGEAFACVGLQVDAEA
B18: F33 (antibody)
heavy: not shown
light: B17 light with D111G, Q112G, P113G, Q114G, F115S, K122L, K177T
B19: F25 (antibody)
heavy: not shown
light: B17 light
B20: F26 (antibody)
heavy: not shown
light: B17 light with K177H
B21: F30 (antibody)
heavy: not shown
light: B17 light with K122R, K177H
B22: F27 (antibody)
heavy: not shown
light: B17 light with K177H
B23: F28 (antibody)
heavy: not shown
light: B17 light with K122R
B24: F29 (antibody)
heavy: not shown
light: B17 light with K122R
B25: F31 (antibody)
heavy: not shown
light: B17 light with K122R, K177H
B26: F32 (antibody)
heavy: not shown
light: DTVVTQEPSFSVSPGGTVTLTCGLSSGSVSTSHYPSWYQQTPGQAPRMLIYNTNTRSSGVPDRFSGSILGNKAALTITGAQADDESDYYCAIHVDRDIWVFGGGTKLTVLGGGGSGGGGSSGAPRFLTRPKAFVVSVGKDATLSSQIVGNPTPQVSWEKDQQPVAAGARFRLAQDGDLYRLTILDLALGDSGQYVSRARNAIGEAFACVGLQVDAEA
B27: F34 (antibody)
heavy: not shown
light: B26 light
B28: F18 (antibody)
heavy: not shown
light: DTVVTQEPSFSVSPGGTVTLTCGLSSGSVSTSHYPSWYQQTPGQAPRMLIYNTNTRSSGVPDRFSGSILGNKAALTITGAQADDESDYYCAIHVDRDIWVFGGGTKLTVLSGAPRFKTRPKAFVVSVGKDATLSSQIVGNPTPQVSWEKDQQPVAAGARFRLAQDGDLYRLHILDLALGDSGQYVSRARNAIGEAFACVGLQVDAEA
B29: F16 (antibody)
heavy: not shown
light: B28 light with K117L, H172T
B30: F19 (antibody)
heavy: not shown
light: B28 light
B31: F23 (antibody)
heavy: not shown
light: B28 light with K117L, K121L
B32: F20 (antibody)
heavy: not shown
light: B28 light with K117L, K121L, H172K
B33: F21 (antibody)
heavy: not shown
light: B28 light with K117L, K121L, H172K
B34: F17 (antibody)
heavy: not shown
light: B28 light with H172K
B35: F22 (antibody)
heavy: not shown
light: B28 light with K117L, K121L

Substitutions are numbered along the chain they refer to.

The target in the first test is T2, hIL-5 (human, UniProt P05113 20-134).
T2 construct: bought
Briefly: ELISA. (In general: ELISA stands for enzyme-linked immunosorbent assay.)
Procedure: For an antibody targeting a soluble protein, the binding activity of the antibody against the soluble protein was detected by ELISA. […] After the blocking was completed, the blocking solution was discarded; and the plate was washed 3 times with a PBST buffer (pH 7.4, PBS containing 0.1% tween-20). 100 μL of the antibody solution diluted in a gradient was added to each well, and the mixture was incubated at 37° C. for 1 h. After the incubation was completed, the plate was washed 3 times with PBST. […] The plate was washed 3 times with PBST. […] The reaction was stopped by adding 50 μL of 1 M H₂SO₄ to each well. The absorbance values at 450 nm were read on a microplate reader, the binding curves of the antibodies to an antigen were fitted with software, and the EC₅₀ values were calculated.
As a reminder, the EC50 is the concentration giving half of the maximal effect. B1 registered an EC50 of 4.89 nM.

In turn, B2 gave an EC50 of 3.95 nM.

The molecule B3 yielded a concentration giving a half-maximal response (EC50) of 3.3 nM.

For the molecule B4, the half-maximal effective concentration (EC50) was determined as 3.84 nM.

Molecule B5 showed a 50% effective concentration (EC50) of 4.36 nM.

B6 had an EC50 of 3.4 nM.

In the case of B7, the concentration for a half-maximal effect (EC50) was determined as 2.92 nM.

Consider B8, for which the response was half-maximal at 2.11 nM (EC50).

Molecule B9 showed an EC50 of 2.7 nM.

Consider B10, for which a half-maximal effect (EC50) was put at 2.86 nM.

In the case of B11, the EC50 came to 2.1 nM.

Take B12: the EC50 came to 3.38 nM.

On to B13, for which the EC50 is 4.34 nM.

With B14, the half-maximal effective concentration (EC50) stood at 2.61 nM.

Take B15: a half-maximal effect (EC50) was put at 3.56 nM.

Molecule B16 displayed a concentration giving a half-maximal response (EC50) of 4.26 nM.

The target in the next test is T1, B7H3 on the recombinant cell line …. Kind of test: FACS, CT26-B7H3 cells. Background: A flow cytometer gives signals particle by particle.
For B17, the EC50 was determined as 2.4 nM.

Regarding B18, the 50% effective concentration (EC50) came out at 1.92 nM.

Take B19: the EC50 turned out to be 2.6 nM.

Consider B20, for which the EC50 was 2.6 nM.

Regarding B21, the EC50 amounted to 3.4 nM.

Regarding B22, the EC50 worked out at 1.2 nM.

B23: the EC50 stood at 2.4 nM.

In the case of B24, the EC50 worked out at 3.6 nM.

As to B25, the EC50 is 2.4 nM.

Consider B26, for which the half-maximal effective concentration (EC50) stood at 3.69 nM.

Consider B27, for which the concentration for a half-maximal effect (EC50) turned out to be 2.38 nM.

Take B28: the concentration for a half-maximal effect (EC50) was found to be 3.9 nM.

For B29, the EC50 came to 2 nM.

Take B30: the concentration giving a half-maximal response (EC50) stood at 2.2 nM.

For the molecule B31, the 50% effective concentration (EC50) was 4.1 nM.

Take B32: the EC50 was found to be 1.9 nM.

In the case of B33, the EC50 came out at 3.4 nM.

B34: the EC50 was 4.8 nM.

In the case of B35, the EC50 worked out at 2.4 nM.
